Measured values from patent US20060173159A1, “Water-soluble thioester and selenoester compounds and methods for making and using the same” (priority 2002, published 2006).
No end group written: not given here. *: point of attachment. thioester = C-terminal thioester, without the water-soluble polymer; Acm = CC(=O)NC*

Test: Dissolution of deprotected and cleaved crude peptide-thioester in 50% aqueous acetonitrile containing 0.08% TFA
Assay type: physicochemical
Details: 50% aqueous acetonitrile containing 0.08% trifluoroacetic acid (TFA)

Substance	dissolution of deprotected and cleaved peptide-thioester
GRFN 1852-PLP3-Leu: SEQ ID NO:4 peptide, C-terminal L-thioester joined to water-soluble polyamide polymer PLP3-Leu (C(Acm)LSQLHSGLFLYQGLLQALEGISPELGPTLDTLQLDVADFATTIWQQMEEL; not fully specified (C-terminus); also: C-terminal thioester joined to PLP3-Leu polyamide polymer)	completely dissolved
GRFN 1852: SEQ ID NO:3 peptide L-thioester, non-polymer modified; comparator (C(Acm)LSQLHSGLFLYQGLLQALEGISPELGPTLDTLQLDVADFATTIWQQMEEL-thioester)	poorly soluble
